Experimental data: article PMC9482650, “Quantitative fragmentomics allow affinity mapping of interactomes” (Nature Communications, 2022)

T1: NHERF3_4, Q5T2W1
T1 sequence (Q5T2W1 373-468, limits assumed, looked up): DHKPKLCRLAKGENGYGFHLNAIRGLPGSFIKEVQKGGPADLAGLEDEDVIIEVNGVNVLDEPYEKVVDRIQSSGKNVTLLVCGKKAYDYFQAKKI

T2: MPDZ_5, O75970
T2 sequence (O75970 695-796, limits assumed, looked up): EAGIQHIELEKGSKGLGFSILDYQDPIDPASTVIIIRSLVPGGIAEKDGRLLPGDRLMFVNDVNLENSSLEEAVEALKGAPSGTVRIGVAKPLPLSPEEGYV

T3: MPP6, Q9NZW5
T3 sequence (Q9NZW5 125-219, limits assumed, looked up): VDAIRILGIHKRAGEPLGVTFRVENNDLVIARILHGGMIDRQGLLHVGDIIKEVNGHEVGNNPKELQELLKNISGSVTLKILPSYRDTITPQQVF

T4: NHERF3_1, Q5T2W1
T4 sequence (Q5T2W1 4-100, limits assumed, looked up): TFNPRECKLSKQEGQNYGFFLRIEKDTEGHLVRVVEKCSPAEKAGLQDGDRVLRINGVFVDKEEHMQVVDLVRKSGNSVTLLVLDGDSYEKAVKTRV

T5: PDZD2_2, O15018
T5 sequence (O15018 329-429, limits assumed, looked up): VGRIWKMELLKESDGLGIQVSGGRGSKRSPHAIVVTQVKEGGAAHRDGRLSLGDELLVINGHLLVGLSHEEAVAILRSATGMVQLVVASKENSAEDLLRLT

T6: SNTA1, Q13424
T6 sequence (Q13424 82-180, limits assumed, looked up): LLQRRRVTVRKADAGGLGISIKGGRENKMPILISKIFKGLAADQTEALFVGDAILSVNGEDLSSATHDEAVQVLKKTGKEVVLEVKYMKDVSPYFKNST

T7: DFNB31_2, Q9P202
T7 sequence (Q9P202 274-371, limits assumed, looked up): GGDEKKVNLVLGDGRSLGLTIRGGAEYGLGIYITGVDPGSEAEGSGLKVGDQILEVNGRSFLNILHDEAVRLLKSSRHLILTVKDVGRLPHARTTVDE

T8: LIN7A, O14910
T8 sequence (O14910 103-200, limits assumed, looked up): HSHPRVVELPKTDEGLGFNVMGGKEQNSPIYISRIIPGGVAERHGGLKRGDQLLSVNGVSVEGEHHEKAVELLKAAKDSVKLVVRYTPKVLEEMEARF

T9: SIPA1L2, Q9P2F8
T9 sequence (Q9P2F8 945-1036, limits assumed, looked up): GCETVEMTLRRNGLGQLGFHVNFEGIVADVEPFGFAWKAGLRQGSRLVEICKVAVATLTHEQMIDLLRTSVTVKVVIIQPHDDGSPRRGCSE

T10: CARD11, Q9BXL7
T10 sequence (Q9BXL7 662-765, limits assumed, looked up): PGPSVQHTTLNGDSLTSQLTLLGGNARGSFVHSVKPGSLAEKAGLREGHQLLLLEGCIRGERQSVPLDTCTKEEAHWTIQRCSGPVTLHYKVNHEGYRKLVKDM

T11: PCLO, Q9Y6V0
T11 sequence (Q9Y6V0 4491-4600, limits assumed, looked up): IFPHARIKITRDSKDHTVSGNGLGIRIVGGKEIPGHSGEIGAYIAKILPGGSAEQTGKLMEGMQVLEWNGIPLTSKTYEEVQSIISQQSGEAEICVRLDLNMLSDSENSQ

T12: DFNB31_3, Q9P202
T12 sequence (Q9P202 811-907, limits assumed, looked up): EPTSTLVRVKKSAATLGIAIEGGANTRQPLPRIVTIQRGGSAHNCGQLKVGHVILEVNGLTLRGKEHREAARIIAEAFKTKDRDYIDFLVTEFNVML

B1: CLDN1, O95832 (peptide)
chain: PAPSSGKDYV

What follows are binders tested against DLG1_2, Q12959 (assay: holdup assay). Conditions: plain residues with an end cap or a label only (N-terminal biotin on a linker: ado-ado).
Parameters: key: below the threshold = too weak to quantify, mostly under pKd 3.1 to 4

Row | Binder | pKd
1 | B1 | below the threshold

These binders were tested against T1, NHERF3_4, Q5T2W1 (assay: holdup assay). Conditions: plain residues with an end cap or a label only (N-terminal biotin on a linker: ado-ado).
Parameters: key: below the threshold = too weak to quantify, mostly under pKd 3.1 to 4

Row | Binder | pKd
2 | B1 | below the threshold

Each binder was assayed against T2, MPDZ_5, O75970 (assay: holdup assay). Conditions: plain residues with an end cap or a label only (N-terminal biotin on a linker: ado-ado).
Parameters: key: below the threshold = too weak to quantify, mostly under pKd 3.1 to 4

Row | Binder | pKd
3 | B1 | below the threshold

The binders below were run against MAGI2_2, Q86UL8 (assay: holdup assay). Conditions: plain residues with an end cap or a label only (N-terminal biotin on a linker: ado-ado).
Chain of MAGI2_2, Q86UL8 (Q86UL8 410-522): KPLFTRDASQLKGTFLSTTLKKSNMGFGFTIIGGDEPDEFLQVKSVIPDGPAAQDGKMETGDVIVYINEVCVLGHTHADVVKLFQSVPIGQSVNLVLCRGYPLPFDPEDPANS
Parameters: key: below the threshold = too weak to quantify, mostly under pKd 3.1 to 4

Row | Binder | pKd
4 | B1 | below the threshold

These binders were tested against T3, MPP6, Q9NZW5 (assay: holdup assay). Conditions: plain residues with an end cap or a label only (N-terminal biotin on a linker: ado-ado).
Parameters: key: below the threshold = too weak to quantify, mostly under pKd 3.1 to 4

Row | Binder | pKd
5 | B1 | 3.88

Each binder was assayed against T4, NHERF3_1, Q5T2W1 (assay: holdup assay). Conditions: plain residues with an end cap or a label only (N-terminal biotin on a linker: ado-ado).
Parameters: key: below the threshold = too weak to quantify, mostly under pKd 3.1 to 4

Row | Binder | pKd
6 | B1 | 4.08

Each binder was assayed against GRIP2_6, Q9C0E4 (assay: holdup assay). Conditions: plain residues with an end cap or a label only (N-terminal biotin on a linker: ado-ado).
Chain of GRIP2_6, Q9C0E4 (Q9C0E4 648-740): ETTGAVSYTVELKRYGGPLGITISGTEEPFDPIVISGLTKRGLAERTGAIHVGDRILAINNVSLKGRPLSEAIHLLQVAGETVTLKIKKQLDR
Parameters: key: below the threshold = too weak to quantify, mostly under pKd 3.1 to 4

Row | Binder | pKd
7 | B1 | below the threshold

What follows are binders tested against T5, PDZD2_2, O15018 (assay: holdup assay). Conditions: plain residues with an end cap or a label only (N-terminal biotin on a linker: ado-ado).
Parameters: key: below the threshold = too weak to quantify, mostly under pKd 3.1 to 4

Row | Binder | pKd
8 | B1 | 4.59

These binders were tested against MAST1, Q9Y2H9 (assay: holdup assay). Conditions: plain residues with an end cap or a label only (N-terminal biotin on a linker: ado-ado).
Chain of MAST1, Q9Y2H9 (Q9Y2H9 962-1065): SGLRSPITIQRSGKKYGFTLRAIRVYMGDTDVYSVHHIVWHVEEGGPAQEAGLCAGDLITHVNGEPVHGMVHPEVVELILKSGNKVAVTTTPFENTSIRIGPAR
Parameters: key: below the threshold = too weak to quantify, mostly under pKd 3.1 to 4

Row | Binder | pKd
9 | B1 | 3.51

The binders below were run against IL16_3, Q14005 (assay: holdup assay). Conditions: plain residues with an end cap or a label only (N-terminal biotin on a linker: ado-ado).
Chain of IL16_3, Q14005 (Q14005 1107-1207): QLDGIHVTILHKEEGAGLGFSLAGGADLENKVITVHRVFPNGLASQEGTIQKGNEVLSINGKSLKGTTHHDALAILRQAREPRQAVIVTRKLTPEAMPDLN
Parameters: key: below the threshold = too weak to quantify, mostly under pKd 3.1 to 4

Row | Binder | pKd
10 | B1 | below the threshold

The binders below were run against T6, SNTA1, Q13424 (assay: holdup assay). Conditions: plain residues with an end cap or a label only (N-terminal biotin on a linker: ado-ado).
Parameters: key: below the threshold = too weak to quantify, mostly under pKd 3.1 to 4

Row | Binder | pKd
11 | B1 | below the threshold

The binders below were run against GIPC2, Q8TF65 (assay: holdup assay). Conditions: plain residues with an end cap or a label only (N-terminal biotin on a linker: ado-ado).
Chain of GIPC2, Q8TF65 (Q8TF65 112-203): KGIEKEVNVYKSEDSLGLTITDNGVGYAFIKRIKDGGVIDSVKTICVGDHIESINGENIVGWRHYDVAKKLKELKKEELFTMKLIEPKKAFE
Parameters: key: below the threshold = too weak to quantify, mostly under pKd 3.1 to 4

Row | Binder | pKd
12 | B1 | below the threshold

The binders below were run against DLG1_1, Q12959 (assay: holdup assay). Conditions: plain residues with an end cap or a label only (N-terminal biotin on a linker: ado-ado).
Parameters: key: below the threshold = too weak to quantify, mostly under pKd 3.1 to 4

Row | Binder | pKd
13 | B1 | below the threshold

The binders below were run against GRASP, Q7Z6J2 (assay: holdup assay). Conditions: plain residues with an end cap or a label only (N-terminal biotin on a linker: ado-ado).
Chain of GRASP, Q7Z6J2 (Q7Z6J2 96-193): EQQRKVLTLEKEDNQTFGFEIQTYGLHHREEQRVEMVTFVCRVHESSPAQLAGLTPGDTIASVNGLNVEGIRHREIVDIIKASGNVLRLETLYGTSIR
Parameters: key: below the threshold = too weak to quantify, mostly under pKd 3.1 to 4

Row | Binder | pKd
14 | B1 | below the threshold

These binders were tested against GRIP2_5, Q9C0E4 (assay: holdup assay). Conditions: plain residues with an end cap or a label only (N-terminal biotin on a linker: ado-ado).
Chain of GRIP2_5, Q9C0E4 (Q9C0E4 544-642): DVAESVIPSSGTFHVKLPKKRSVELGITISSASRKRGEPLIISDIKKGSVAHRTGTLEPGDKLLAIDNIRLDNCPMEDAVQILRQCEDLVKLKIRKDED
Parameters: key: below the threshold = too weak to quantify, mostly under pKd 3.1 to 4

Row | Binder | pKd
15 | B1 | below the threshold

What follows are binders tested against FRMPD2_2, Q68DX3 (assay: holdup assay). Conditions: plain residues with an end cap or a label only (N-terminal biotin on a linker: ado-ado).
Chain of FRMPD2_2, Q68DX3 (Q68DX3 944-1038): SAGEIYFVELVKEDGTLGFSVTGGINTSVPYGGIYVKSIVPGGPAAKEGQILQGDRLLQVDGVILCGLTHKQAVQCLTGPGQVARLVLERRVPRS
Parameters: key: below the threshold = too weak to quantify, mostly under pKd 3.1 to 4

Row | Binder | pKd
16 | B1 | below the threshold

The binders below were run against FRMPD2_3, Q68DX3 (assay: holdup assay). Conditions: plain residues with an end cap or a label only (N-terminal biotin on a linker: ado-ado).
Chain of FRMPD2_3, Q68DX3 (Q68DX3 1073-1166): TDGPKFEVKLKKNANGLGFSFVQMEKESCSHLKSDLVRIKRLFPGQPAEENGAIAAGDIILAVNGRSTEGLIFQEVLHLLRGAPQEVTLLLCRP
Parameters: key: below the threshold = too weak to quantify, mostly under pKd 3.1 to 4

Row | Binder | pKd
17 | B1 | below the threshold

The binders below were run against T7, DFNB31_2, Q9P202 (assay: holdup assay). Conditions: plain residues with an end cap or a label only (N-terminal biotin on a linker: ado-ado).
Parameters: key: below the threshold = too weak to quantify, mostly under pKd 3.1 to 4

Row | Binder | pKd
18 | B1 | below the threshold

Each binder was assayed against GRID2IP_2, A4D2P6 (assay: holdup assay). Conditions: plain residues with an end cap or a label only (N-terminal biotin on a linker: ado-ado).
Chain of GRID2IP_2, A4D2P6 (A4D2P6 272-370): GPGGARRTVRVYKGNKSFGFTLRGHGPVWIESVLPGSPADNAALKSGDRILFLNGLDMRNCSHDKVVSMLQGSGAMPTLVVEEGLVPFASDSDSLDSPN
Parameters: key: below the threshold = too weak to quantify, mostly under pKd 3.1 to 4

Row | Binder | pKd
19 | B1 | below the threshold

The binders below were run against T8, LIN7A, O14910 (assay: holdup assay). Conditions: plain residues with an end cap or a label only (N-terminal biotin on a linker: ado-ado).
Parameters: key: below the threshold = too weak to quantify, mostly under pKd 3.1 to 4

Row | Binder | pKd
20 | B1 | below the threshold

Each binder was assayed against T9, SIPA1L2, Q9P2F8 (assay: holdup assay). Conditions: plain residues with an end cap or a label only (N-terminal biotin on a linker: ado-ado).
Parameters: key: below the threshold = too weak to quantify, mostly under pKd 3.1 to 4

Row | Binder | pKd
21 | B1 | below the threshold

Each binder was assayed against NHERF2_2, Q15599 (assay: holdup assay). Conditions: plain residues with an end cap or a label only (N-terminal biotin on a linker: ado-ado).
Chain of NHERF2_2, Q15599 (Q15599 142-238): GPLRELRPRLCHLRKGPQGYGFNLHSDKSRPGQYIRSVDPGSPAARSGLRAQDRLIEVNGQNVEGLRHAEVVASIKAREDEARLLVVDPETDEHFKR
Parameters: key: below the threshold = too weak to quantify, mostly under pKd 3.1 to 4

Row | Binder | pKd
22 | B1 | below the threshold

The binders below were run against DLG2_3, Q15700 (assay: holdup assay). Conditions: plain residues with an end cap or a label only (N-terminal biotin on a linker: ado-ado).
Parameters: key: below the threshold = too weak to quantify, mostly under pKd 3.1 to 4

Row | Binder | pKd
23 | B1 | below the threshold

The binders below were run against T10, CARD11, Q9BXL7 (assay: holdup assay). Conditions: plain residues with an end cap or a label only (N-terminal biotin on a linker: ado-ado).
Parameters: key: below the threshold = too weak to quantify, mostly under pKd 3.1 to 4

Row | Binder | pKd
24 | B1 | below the threshold

What follows are binders tested against T11, PCLO, Q9Y6V0 (assay: holdup assay). Conditions: plain residues with an end cap or a label only (N-terminal biotin on a linker: ado-ado).
Parameters: key: below the threshold = too weak to quantify, mostly under pKd 3.1 to 4

Row | Binder | pKd
25 | B1 | below the threshold

These binders were tested against T12, DFNB31_3, Q9P202 (assay: holdup assay). Conditions: plain residues with an end cap or a label only (N-terminal biotin on a linker: ado-ado).
Parameters: key: below the threshold = too weak to quantify, mostly under pKd 3.1 to 4

Row | Binder | pKd
26 | B1 | below the threshold
